Assays:
[1] = molecular target: T1, apical domain of cynomolgus CD71 (cynomolgus, UniProt A0A2K5X958 189-383); test: primary ELISA; further: test concentration or dose not given here
T1 construct: domain: apical domain; also called Cyno apical domain

[2] = molecular target: T2, human CD71 extracellular domain (human, UniProt P02786 89-760); test: primary ELISA; further: test concentration or dose not given here
T2 construct: also called hCD71; human CD71-ECD

[3] = molecular target: T1, apical domain of cynomolgus CD71; test: primary ELISA, signal ratio to HSA
[4] = molecular target: T2, human CD71 extracellular domain; test: primary ELISA, signal ratio to HSA

T2 sequence (P02786 89-760): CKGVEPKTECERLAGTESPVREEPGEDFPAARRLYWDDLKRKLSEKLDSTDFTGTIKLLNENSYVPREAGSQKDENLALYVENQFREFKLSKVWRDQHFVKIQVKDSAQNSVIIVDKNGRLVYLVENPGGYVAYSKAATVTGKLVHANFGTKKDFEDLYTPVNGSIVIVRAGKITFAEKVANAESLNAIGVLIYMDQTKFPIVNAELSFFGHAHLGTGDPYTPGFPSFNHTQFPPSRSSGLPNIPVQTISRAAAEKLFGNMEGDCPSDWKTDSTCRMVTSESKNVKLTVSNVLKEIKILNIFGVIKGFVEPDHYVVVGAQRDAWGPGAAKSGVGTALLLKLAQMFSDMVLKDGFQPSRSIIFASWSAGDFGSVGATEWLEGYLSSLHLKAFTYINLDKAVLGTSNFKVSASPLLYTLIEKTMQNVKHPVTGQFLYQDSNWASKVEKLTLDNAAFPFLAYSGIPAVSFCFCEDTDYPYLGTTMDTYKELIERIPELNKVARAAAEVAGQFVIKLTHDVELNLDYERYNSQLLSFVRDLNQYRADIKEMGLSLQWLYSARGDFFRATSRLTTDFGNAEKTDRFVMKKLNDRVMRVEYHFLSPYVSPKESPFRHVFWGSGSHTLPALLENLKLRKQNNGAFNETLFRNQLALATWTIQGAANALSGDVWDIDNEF
T1 sequence (A0A2K5X958 entry or part of it): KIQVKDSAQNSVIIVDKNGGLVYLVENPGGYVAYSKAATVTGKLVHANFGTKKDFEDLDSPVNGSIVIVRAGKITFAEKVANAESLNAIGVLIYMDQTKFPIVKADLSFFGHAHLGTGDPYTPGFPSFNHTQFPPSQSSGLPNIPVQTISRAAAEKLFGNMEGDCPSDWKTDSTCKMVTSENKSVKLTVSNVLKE

| Binder | RLU [1] [RLU] | RLU [2] [RLU] | Cyno apical domain:HSA [3] | hCD71:HSA [4] |
| --- | --- | --- | --- | --- |
| CD71-binding FN3 domain of SEQ ID NO: 183 (designed binder) MSLPAPKNLVISRVTEDSARLSWTAPDAAFDSFEIVYAEPVRFGEAIVLTVPGSERSYDLTGLKPGTEYWVQIGGVKGGEWSSPLSAIFTT | 4.47e+06 | 3.19e+06 | 15 | 108 |
| CD71-binding FN3 domain of SEQ ID NO: 199 (designed binder) MSLPAPKNLVVSRVTEDSARLSWTAPDAAFDSFEIGYFENLYLGEAIVLTVPGYERSYDLTGLKPGTEYWVQIGGVKGGNWSAPLSAIFTT | 4.9e+06 | 4.45e+06 | 187 | 170 |
| CD71-binding FN3 domain of SEQ ID NO: 194 (designed binder) MSLPAPKNLVVSRVTEDSARLSWTAPDAAFDSFEIGYFENLYLGEAIVLTVPGSERSYDLTGLKPGTEYPVWIGGVKGGTWSVPLSTIFTT | 3.78e+06 | 2.56e+06 | 77 | 52 |
| CD71-binding FN3 domain of SEQ ID NO: 188 (designed binder) MSLPAPKNLVVSRVTEDSARLSWTAPDAAFDSFEIGYWENAYKGEAIVLTVPGSERSYDLTGLKPGTEYVVFIGGVKGGHGSQPLSAIFTT | 3.37e+06 | 1.11e+06 | 100 | 33 |
| CD71-binding FN3 domain of SEQ ID NO: 200 (designed binder) MSLPAPKNLVVSRVTEDSARLSWTAPDAAFDSFEIGYFENLYLGEAIVLTVPGSERSYDLTGLKPGTEYWVQIGGVKGSNWSAPLSAIFTT | 4.72e+06 | 3.49e+06 | 172 | 127 |
| CD71-binding FN3 domain of SEQ ID NO: 190 (designed binder) MSLPAPKNLVISRVTEDSARLSWTAPDAAFDSFEIGYFENLYLGEAIVLTVPGSERSYDLTGLKPGTEYWVQIGGVKGGNWSAPLSAISTT | 5.2e+06 | 3.66e+06 | 68 | 48 |
| CD71-binding FN3 domain of SEQ ID NO: 192 (designed binder) MSLPAPKNLVVSRVTEDSARLSWTAPDAAFDSFEIGYFENLYLGEAIVLTVPGSERSYDLTGLKPGTEYWVQIGGVKGGWGSNPLSAIFTT | 3.91e+06 | 2.67e+06 | 90 | 61 |
| CD71-binding FN3 domain of SEQ ID NO: 189 (designed binder) MSLPAPKNLVVSRVTEDSARLSWTAPDAAFDSFEIGYFEHTYYGEAIVLTVPGSERSYDLTGLKPGTEYWVQIGGVKGGNWSAPLSAIFTT | 4.87e+06 | 3.45e+06 | 1950 | 1380 |
| CD71-binding FN3 domain of SEQ ID NO: 203 (designed binder) MSLPAPKNLVVSRVTEDFARLSWTAPDAAFDSFEIAYWEQSYTGEAIVLTVPGSERSYDLTGLKPGTEYFVHIGGVKGGVWSTPLSAIFTT | 4.85e+06 | 2.25e+06 | 362 | 168 |
| CD71-binding FN3 domain of SEQ ID NO: 191 (designed binder) MSLPAPKNLVVSRVTEDSARLSWTAPDAAFDSFEIGYFENLYLGEAIVLTVPGSERSYDLAGLKPGTEYWVQIGGVKGGNWSAPLSAIFTT | 4.99e+06 | 4.2e+06 | 109 | 92 |
| CD71-binding FN3 domain of SEQ ID NO: 205 (designed binder) MSLPAPKNLVVSRVTEDSARLSWTAPDAAFDSFEIGYFENLYLGEAIHLFVPGSERSYDLTGLKPGTEYNVTIQGVKGGFPSEPLIANFTT | 4.1e+06 | 1.02e+06 | 213 | 53 |
| CD71-binding FN3 domain of SEQ ID NO: 201 (designed binder) MSLPAPKNLVVSRVTEDSARLSWTAPDAAFDSFEIAYFEGTFHGEAIVLFVPGSERSYDLTGLKPGTEYAVWIGGVKGGDYSRPLSAAFTT | 3.01e+06 | 1.59e+06 | 76 | 40 |
| CD71-binding FN3 domain of SEQ ID NO: 202 (designed binder) MSLPAPKNLVVSRVTEDSARLSWTAPDAAFDSFEIGYFENLYLGEAIVLTVPGSERSYDLTGLKPGTEYYVHIGGVKGGIWSSPLSAIFTT | 3.51e+06 | 1.11e+06 | 184 | 58 |
| CD71-binding FN3 domain of SEQ ID NO: 187 (designed binder) MSLPAPKNLVVSRVTEDSARLSWTAPDAAFDSFEIGYWENAYKGEAIVLTVPGSERSYDLTGLKPGTEYRVWIGGVKGGVWSRPLSAIFTT | 4.22e+06 | 3.06e+06 | 93 | 67 |
| CD71-binding FN3 domain of SEQ ID NO: 186 (designed binder) MSLPAPKNLVVSRVTEDSARLSWTAPDAAFDSFEIGYFENPYLGEAIVLTVPGSERSYDLTGLKPGTEYWVQIGGVKGGNWSAPLSAIFTT | 4.75e+06 | 3.63e+06 | 153 | 117 |
| CD71-binding FN3 domain of SEQ ID NO: 184 (designed binder) MSLPAPKNLVVSRVTEDSARPSWTAPDAAFDSFEIAYFERTWFGEAIVLTVPGSERSYDLTGLKPGTEYWVQIGGVKGGDWSKPLSAIFTT | 5.08e+06 | 3.74e+06 | 101 | 74 |
| CD71-binding FN3 domain of SEQ ID NO: 193 (designed binder) MSLPAPKNLVVSRVTEDSARLSWTAPDAAFDSFEIGYFENLYLGEAIVLTVPGSERSYDLTGLKPGTEYWVQIGGVKGGNWSEPLSAIFTT | 3.95e+06 | 2.33e+06 | 116 | 68 |
| CD71-binding FN3 domain of SEQ ID NO: 195 (designed binder) MSLPAPKNLIVSRVTEDSARLSWTAPDAAFDSFEIGYFENLYLGEAIVLTVPGSERSYDLTGLKPGTEYWVQIGGVKGSNWSAPLSAIFTT | 4.2e+06 | 2.88e+06 | 155 | 106 |

Continued, values first:

| RLU [1] [RLU] | RLU [2] [RLU] | Cyno apical domain:HSA [3] | hCD71:HSA [4] | Binder |
| --- | --- | --- | --- | --- |
| 4.74e+06 | 2.46e+06 | 251 | 130 | CD71-binding FN3 domain of SEQ ID NO: 213 (designed binder) MSLPAPKNLVVSRVTEDSARLSWTAPDAAFDSFEIGYFENLYLGEAIVLTVPGSERSYDLTGLKPGTEYWVQIGGAKGGNWSAPLSAIFTT |
| 4.67e+06 | 2.02e+06 | 177 | 76 | CD71-binding FN3 domain of SEQ ID NO: 211 (designed binder) MSLPAPKNLVVSRVTEDSARLSWTAPDAAFDSFEIVYAEPVRFGEAIVLTVPGSERSYDLTGLKPGTEYWVQIGGVKGGEWSSLLSAIFTT |
| 5.04e+06 | 3.37e+06 | 119 | 80 | CD71-binding FN3 domain of SEQ ID NO: 216 (designed binder) MSLPAPKNLVVSRVTEDSARLSWTAPDAAFDSFEIAYFEQTYTGEAIVLTVPGSERSYDLTGLKPGTEYWVQIGGVKGGTWSAPLSAISTT |
| 3.98e+06 | 2.33e+06 | 74 | 43 | CD71-binding FN3 domain of SEQ ID NO: 217 (designed binder) MSLPAPKNLVVSRVTEDSARLSWTAPDAAFDSFEIAYFEQTYTGEAIVLTVPGSERSYDLTGLKPGTEYWVAIGGVKGGLWSLPLSAIFTT |
| 5.13e+06 | 2.82e+06 | 176 | 97 | CD71-binding FN3 domain of SEQ ID NO: 212 (designed binder) MSLPAPKNLVVSRVTEDSARLSWTAPDAAFDSFEIGYFENLYLGEAIVLTVPGSERYYDLTGLKPGTEYWVQIGGVKGGNWSAPLSAIFTT |
| 5.45e+06 | 4.06e+06 | 19 | 142 | CD71-binding FN3 domain of SEQ ID NO: 208 (designed binder) MSLPAPKNLVVSRVTEDSARLSWTAPDAAFDSFFIGYFENLYLGEAIVLTVPGSERSYDLTGLKPGTEYWVQIGGVKGGNWSAPLSAIFTT |
| 4.2e+06 | 1.01e+06 | 148 | 36 | CD71-binding FN3 domain of SEQ ID NO: 214 (designed binder) MSLPAPKNLVVSRVTEDSARLSWTAPDAAFDSFEIDYGEYSQAGEAIGLLVPGSERSYDLTGLKPGTEYWVQIGGVKGGNWSAPLSAIFTT |
| 5.07e+06 | 4.27e+06 | 423 | 356 | CD71-binding FN3 domain of SEQ ID NO: 209 (designed binder) MSLPAPKNLVVSRVTEDSARLSWTAPDAAFDSFEIAYFERTWFGEAIVLTVPGSERSYDLTGLKPGTEYWVQIGGVKGGDWSRPLSAIFTT |
| 5.33e+06 | 3.9e+06 | 67 | 49 | CD71-binding FN3 domain of SEQ ID NO: 206 (designed binder) MSLPAPKNLVASRVTEDSARLSWTAPDAAFDSFEIGYFENLYLGEAIVLTVPGSERSYDLTGLKPGTEYWVQIGGVKGGNWSAPLSAIFTT |
| 4.94e+06 | 3.58e+06 | 31 | 22 | CD71-binding FN3 domain of SEQ ID NO: 207 (designed binder) MSLPAPKNLVVSRVTEDSARLSWTAPDAAFDSFEIGYWENAYKGEAIVLTVPGSERSYDLTGLKPGTEYVVFIGGVKGGVWSVPLSAISTT |
| 4.95e+06 | 3.34e+06 | 71 | 48 | CD71-binding FN3 domain of SEQ ID NO: 215 (designed binder) MSLPAPKNLVVSRVTEDSARLSWTAPDAAFDSLEIGYFENLYLGEAIVLTVPGSERSYDLTGLKPGTEYWVQIGGVKGGNWSAPLSAIFTT |

From patent US20260151494A1 (ARO BIOTHERAPEUTICS, published 2026)
